T1: cadherin6 (CDH6)-fc fusion protein (UniProt P55285 54-615, limits assumed)
T1 construct: Immobilised on a carboxymethyl dextran SPR chip; also called K-cadherin
T1 sequence (looked up): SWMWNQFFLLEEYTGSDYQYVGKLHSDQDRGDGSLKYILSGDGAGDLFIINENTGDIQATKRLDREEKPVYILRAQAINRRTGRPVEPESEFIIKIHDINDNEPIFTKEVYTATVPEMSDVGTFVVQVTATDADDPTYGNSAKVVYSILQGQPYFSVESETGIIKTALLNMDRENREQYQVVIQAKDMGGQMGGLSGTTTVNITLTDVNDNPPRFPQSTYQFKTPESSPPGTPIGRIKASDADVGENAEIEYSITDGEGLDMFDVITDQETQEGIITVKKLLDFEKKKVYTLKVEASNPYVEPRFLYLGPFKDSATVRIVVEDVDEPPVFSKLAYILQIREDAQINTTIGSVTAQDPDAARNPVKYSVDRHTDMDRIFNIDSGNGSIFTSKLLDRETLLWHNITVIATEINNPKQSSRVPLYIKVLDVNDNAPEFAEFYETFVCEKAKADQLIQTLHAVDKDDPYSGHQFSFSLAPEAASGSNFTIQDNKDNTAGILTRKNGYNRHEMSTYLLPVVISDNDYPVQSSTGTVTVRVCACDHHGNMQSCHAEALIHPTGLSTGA

B1: GRS-DP polypeptide (GRS 531-600 aa) (peptide)
peptide: MYTVFEHTFHVREGDEQRTFFSFPAVVAPFKCSVLPLSQNQEFMPFVKELSEALTRHGVSHKVDDSSGSI
notes: Linear truncated GRS fragment; also called GRS-DP peptide
B2: GRS-DP-A cyclic (peptide)
peptide: CYTVFEHTFHVREGDEQRTFFSFPC
modifications: cyclic form: "monosulfide linkage" formed between the cysteine residues at the opposite termini (Cys 1 and Cys 25)
notes: Cyclised by spontaneous reaction at pH 8; 3.083 kDa; also called GRS-DP-A cyclic variant

These binders were tested against T1, cadherin6 (CDH6)-fc fusion protein (assay: SPR, CDH6-Fc immobilised on carboxymethyl dextran chip, peptide injected).
Description: Comparison was made of the affinity of the peptides of the present invention for CDH6. The binding of GRS and GRS-derived peptides to cadherin6 (CDH6)-fc fusion protein was analyzed by surface plasmon resonance (SPR) using SR7500DC, Reichert Analytical Instrument (Depew NY). CDH6 was immobilized on a [CMDH chip] carboxymethyl dextran sensor chip via a free carboxyl group on the surface thereof, followed by injecting 0.1M 1-ethyl-3-(3-dimethylaminopropyl) carbodiimide hydrochloride and 0.05M N-hydroxysuccinimide at a flow speed of 5 μL/min to give an activated succinimide ester-modified surface. Various concentrations of GRS and GRS-derived peptides were injected at a flow speed of 30 μL/min into phosphate-based saline, after which a mobile-phase buffer was injected at the same flow speed to determine a dissociation rate. Data was analyzed using Software Scrubber 2.0 (Biological Software, Australia).
In the case of B1, the Kd is reported as 83.9 nM.
Work on MYTVFEHTFHVREGDEQRTFFSFPA (Linear 25-mer, 3.079 kDa) [GRS-DP-A linear (GRS 531-555 aa)] yielded a Kd of 61.2 nM.
With B2 the Kd was 51.3 nM.

— patent publication US20210198650A1 (NIBEC, published 2021)
